Target: the molecule itself
Experiment: SEC-MALS; 1.0 mg/mL protein on HiLoad 16/60 Superdex 75 in 10 mM Tris-HCl pH 7.5, 150 mM NaCl, 0.75 mL/min, 25 °C; monomer to dimer

Row | Protein | stoichiometry N
1 | LEN immunoglobulin light chain variable domain (kappa 4), recombinant (domain or fragment, 114 amino acid kappa 4 light chain variable domain of the Bence Jones protein LEN, from a patient with multiple myeloma; The C-terminal Lys-His8 of pOPINO was removed by a premature stop codon; removal of the ompA leader was confirmed by mass spectrometry, so the protein has no added residues; also called VL LEN; source: E. coli C41 (DE3), periplasmic expression, osmotic shock, purified …) VL: not shown | 2
2 | SMA immunoglobulin light chain variable domain (kappa 4), recombinant (domain or fragment, 114 amino acid kappa 4 light chain variable domain SMA, first extracted as amyloid fibrils from a patient with AL amyloidosis; The C-terminal Lys-His8 of pOPINO was removed by a premature stop codon; the ompA leader is cleaved; also called VL SMA; source: E. coli C41 (DE3), periplasmic expression, osmotic shock, purified (isoelectric precipitation, cation exchange, SEC); not shown: ompA leader …) VL: not shown | 2
